{"source": "patent US20180371053A1", "about": "(UNIVERSITY OF NORTH CAROLINA AT CHAPEL HILL, published 2018)", "binders": {"B1": {"name": "anti-B7-H3 mAb 376.96 (antibody, V domains shown)", "VH": "EVQLVESGGGLVKPGGSLKLSCEASRFTFSSYAMSWVRQTPEKRLEWVAAISGGGRYTYYPDSMKGRFTISRDNAKNFLYLQMSSLRSEDTAMYYCARHYDGYLDYWGQGTTLTVSS", "VL": "DIVMTQSHKFMSTSIGARVSITCKASQDVRTAVAWYQQKPGQSPKLLIYSASYRYTGVPDRFTGSGSGTDFTFTISSVQAEDLAVYYCQQHYGTPPWTFGGGTKLEIK", "notes": "The residue ranges are my derivation"}}, "key": {"[1]": {"target": "T1, human 4Ig-B7-H3 (human, UniProt Q5ZPR3 29-534)", "T1 construct": "whole, on cells; also called 4Ig-hB7-H3; Raji-4IgB7-H3", "T1 sequence (looked up)": "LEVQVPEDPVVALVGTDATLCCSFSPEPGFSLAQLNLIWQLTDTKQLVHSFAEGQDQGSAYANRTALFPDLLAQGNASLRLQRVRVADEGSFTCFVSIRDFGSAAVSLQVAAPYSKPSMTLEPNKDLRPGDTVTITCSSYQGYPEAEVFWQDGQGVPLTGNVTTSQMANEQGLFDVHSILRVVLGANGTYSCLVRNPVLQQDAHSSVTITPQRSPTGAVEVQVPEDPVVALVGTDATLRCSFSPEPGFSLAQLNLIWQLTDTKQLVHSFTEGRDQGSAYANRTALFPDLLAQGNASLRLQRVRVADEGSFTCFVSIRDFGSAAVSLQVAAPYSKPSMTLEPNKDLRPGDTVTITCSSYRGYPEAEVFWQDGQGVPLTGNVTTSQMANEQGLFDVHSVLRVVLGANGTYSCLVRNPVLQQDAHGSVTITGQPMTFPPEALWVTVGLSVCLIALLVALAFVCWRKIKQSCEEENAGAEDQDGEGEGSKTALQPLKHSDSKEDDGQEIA", "experiment": "flow cytometry on Raji clones expressing 4Ig-hB7-H3"}, "[2]": {"target": "T2, murine B7-H3 (mouse, UniProt Q8VE98 29-316)", "T2 construct": "whole, on cells; also called mB7-H3; mouse B7-H3", "T2 sequence (looked up)": "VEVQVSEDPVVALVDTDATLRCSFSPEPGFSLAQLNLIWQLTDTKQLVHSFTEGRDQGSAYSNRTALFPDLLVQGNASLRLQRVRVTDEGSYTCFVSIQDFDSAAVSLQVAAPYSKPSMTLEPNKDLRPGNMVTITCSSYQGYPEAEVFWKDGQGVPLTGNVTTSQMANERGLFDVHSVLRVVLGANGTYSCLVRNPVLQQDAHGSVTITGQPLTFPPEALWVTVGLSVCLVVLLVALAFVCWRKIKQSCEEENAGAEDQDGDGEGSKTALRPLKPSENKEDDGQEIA", "experiment": "flow cytometry on Raji clones expressing mB7-H3"}}, "data": [{"binder": "B1", "values": [{"measurement": "binding result", "setting": "[1]", "result": "binds"}, {"measurement": "binding result", "setting": "[2]", "result": "binds"}]}]}
